Measurements taken from US20160271157A1, “BETA-CATENIN” (UCL BUSINESS PLC, priority 2013, published 2016).

B1: Wnt4: Recombinant Wnt peptide purchased from R&D systems (protein, UniProt P56705 23-351, looked up)
Protein Wnt-4: SNWLYLAKLSSVGSISEEETCEKLKGLIQRQVQMCKRNLEVMDSVRRGAQLAIEECQYQFRNRRWNCSTLDSLPVFGKVVTQGTREAAFVYAISSAGVAFAVTRACSSGELEKCGCDRTVHGVSPQGFQWSGCSDNIAYGVAFSQSFVDVRERSKGASSSRALMNLHNNEAGRKAILTHMRVECKCHGVSGSCEVKTCWRAVPPFRQVGHALKEKFDGATEVEPRRVGSSRALVPRNAQFKPHTDEDLVYLEPSPDFCEQDMRSGVLGTRGRTCNKTSKAIDGCELLCCGRGFHTAQVELAERCSCKFHWCCFVKCRQCQRLVELHTCR
B2: Wnt7A: Recombinant Wnt peptide purchased from R&D systems (protein, UniProt O00755 32-349, looked up)
Protein Wnt-7a: LGASIICNKIPGLAPRQRAICQSRPDAIIVIGEGSQMGLDECQFQFRNGRWNCSALGERTVFGKELKVGSREAAFTYAIIAAGVAHAITAACTQGNLSDCGCDKEKQGQYHRDEGWKWGGCSADIRYGIGFAKVFVDAREIKQNARTLMNLHNNEAGRKILEENMKLECKCHGVSGSCTTKTCWTTLPQFRELGYVLKDKYNEAVHVEPVRASRNKRPTFLKIKKPLSYRKPMDTDLVYIEKSPNYCEEDPVTGSVGTQGRACNKTAPQASGCDLMCCGRGYNTHQYARVWQCNCKFHWCCYVKCNTCSERTEMYTCK
B3: Wnt11: Recombinant Wnt peptide purchased from R&D systems (protein, UniProt O96014 25-354, looked up)
Protein Wnt-11: IKWLALSKTPSALALNQTQHCKQLEGLVSAQVQLCRSNLELMHTVVHAAREVMKACRRAFADMRWNCSSIELAPNYLLDLERGTRESAFVYALSAAAISHAIARACTSGDLPGCSCGPVPGEPPGPGNRWGGCADNLSYGLLMGAKFSDAPMKVKKTGSQANKLMRLHNSEVGRQALRASLEMKCKCHGVSGSCSIRTCWKGLQELQDVAADLKTRYLSATKVVHRPMGTRKHLVPKDLDIRPVKDSELVYLQSSPDFCMKNEKVGSHGTQDRQCNKTSNGSDSCDLMCCGRGYNPYTDRVVERCHCKYHWCCYVTCRRCERTVERYVCK
B4: Wnt3A: Recombinant Wnt peptide purchased from R&D systems (protein, UniProt P56704 19-352, looked up)
Protein Wnt-3a: SYPIWWSLAVGPQYSSLGSQPILCASIPGLVPKQLRFCRNYVEIMPSVAEGIKIGIQECQHQFRGRRWNCTTVHDSLAIFGPVLDKATRESAFVHAIASAGVAFAVTRSCAEGTAAICGCSSRHQGSPGKGWKWGGCSEDIEFGGMVSREFADARENRPDARSAMNRHNNEAGRQAIASHMHLKCKCHGLSGSCEVKTCWWSQPDFRAIGDFLKDKYDSASEMVVEKHRESRGWVETLRPRYTYFKVPTERDLVYYEASPNFCEPNPETGSFGTRDRTCNVSSHGIDGCDLLCCGRGHNARAERRREKCRCVFHWCCYVSCQECTRVYDVHTCK

Experiments:
Type in all cases: cell-based
[1] = test system: β-catenin translocation to the nucleus; test: β-catenin immunocytochemistry and nuclear co-localization analysis, PC3; conditions: PC3 cells; for Pearson coefficient of nuclear co-localization of β-catenin: Wnt 100 ng/ml vs control, p<0.001 Mann Whitney test
Experimental: Immunostaining was performed in two different laboratories, independently with the experimenter blind to the identity of the treatment. Either cells used in FluoroDish, post [Ca^2+]i experiments using dyes (see above) or grown in 8 well chamber glass slides (Lab Tek II, Nunc) were used. For Wnt ligand treatment, the culture medium replaced with PBS (without calcium) at 37° C. The experiments were replicated for Wnt ligand or vehicle control as described for [Ca^2+]i measurements. Briefly, Wnt ligands were added and chamber slides incubated at 37° C. for up to 20 min. Chamber wells were washed 3× with 0.5 ml PBS and cells were fixed with 0.5 ml 4% formalin for 30 min at 4° C. Cells were washed 3× with ice cold PBS and stored in 0.5 ml PBS at 4° C. for immunostaining. In some experiments PC3 cells were treated with thaspsigargin as described above.
For immunostaining cells were washed twice for 5 minutes in TBST (20 mM Tris pH 7.4, 0.9% NaCl, 0.1% Tween 20, Sigma). Cells were then incubated in 20% normal goat serum (NGS)/TBST for 30 min at room temperature, the chambers were drained and cells were incubated with mouse anti-β-catenin (ab22656, Abcam, UK) at 1:500 dilution in NGS/TBST overnight at 4° C. Following two further 5 min washes in TBST sections were incubated in goat anti-mouse peroxidase fab (Abcam, UK) at 1:500 dilution for 30 min at room temperature. Following a further two 5 min washes in TBST cells were incubated with tyramide Cy3 (Perkin Elmer) for 10 min at room temperature. Sections were washed twice for 5 min in TBST before nuclear counterstaining with DAPI. After a final two 5 min washes, the chambers were removed and cover slip placed on slides using Permafluor (Thermo Shandon).
Fluorescence immunocytochemical staining for β-catenin expression in cell lines was imaged using Olympus Fluoview 1000 Confocal Microscope (Olympus KeyMed) mounted on an Olympus IX81 inverted microscope using a 20×0.7 NA or 40×1.0 NA dry objective with a zoom of ×3.4′,6-diamidino-2-phenylindole (DAPI, nuclear counterstain) was excited at 405 nm with an emission of 415-500 nm; Cy3 (β-catenin label) signal was excited at 561 nm with an emission spectrum between 570-670 nm. […] Z-stacks of at least 3 fields per sample were imaged and saved in Olympus FV (OIF or OIB) file format.
Nuclear co-localization of β-catenin was calculated by importing FV files for untreated, control or treated cells, into colocalization plugin of Fiji software (http://fiji.sc/Fiji) for Cy3 (β-catenin) and DAPI (nuclear) signals. Pearson co-relation of colocalization were tabulated for 25-90 cells (from 2-5 different passages of cells) using ROI analysis. Statistical significance between untreated and treated cells was calculated using Mann Whitney U test.

[2] = test system: Wnt induced calcium release; test: Wnt induced [Ca2+]i release after preincubation with thapsigargin or membrane potential regulating compounds; conditions: preincubation 5 min; Wnt 9B 0.1 μg/ml as example; CsCl 5 mM; CdCl2 1 mM; TEA 10 mM; Amiodarone 75 μM; Tolbutamide 1 mM; Isradipine 100 μM; Nifedipine 1 mM; Minoxidil 25 μM; Atenolol 37.5 μM; Propanolol 50 μM; Furosemide 150 μM
Experimental: The imaging protocol was developed in the inventor's laboratory and has been described in detail, elsewhere (Wang at al., (2010) PLoS ONE 5, e10456). Briefly, 100000-200000 PC3, MCF7, 253J or Cos 7 cells were plated on 35 mm FluoroDish (WPI) and grown for 48 h; calcium indicators Fluo-4 (Invitrogen) and FuraRed (Invitrogen) at 1 ng/ml were added to FluoroDish containing only 1 ml of culture medium and incubated for 15-20 min at 37° C. The culture medium was removed and washed (×2) and replaced with 1 ml PBS. Live cell calcium Imaging was performed on an Olympus FluoView FV 1000 confocal microscope (Olympus KeyMed) equipped with a 20× dry objective (numerical aperture=0.75). Calcium indicators were excited with an argon laser line (488 nm) and emissions recorded in the green channel (500-560 nm) for Fluo-4 and red channel (600-700 nm) for FuraRed after addition of vehicle control (PBS) or Wnt X (30-600 ng/ml). Images were acquired every 1.1 or 2.2 seconds for up to 600-800s; image and data acquisition was performed using FluoView 1000 software (Olympus, UK). Fluorescent intensity was measured and data exported as a tab delimited file for further analysis using a spreadsheet. All imaging experiments were performed in duplicate; intracellular calcium at 100 ng/ml was measured in at least 3-12 different passages (passage numbers 25 to 37) of cell line for each Wnt ligand. Wnt 11 was tested in at least 5 different passages at 3 different concentrations. […]
To measure the effect of changes in membrane potential on [Ca^2+]i release using the protocol described above, in some experiments, external solution (PBS) was substituted with varying concentrations of KCl. In other experiments chemical inhibitors of K^+ channels such as TEA, CsCl or tolbutamide (Sigma-Aldrich) were added to the cells grown on FluoroDish, at 37° C., at least 5 min prior to addition of Wnt ligands.
(§1) After image acquisition, regions of interest (ROI) were drawn over individual PC3 cells (up to 25) in a single frame and calcium intensity measurements were made using FluoView 1000 software (Olympus, UK). The measurements were exported as a tab delimited file into a spreadsheet for further analysis and Fluo4/Fura Red ratios were calculated. The waveform, a product of the ratio of Fluo4 and FuraRed over the period of measurement was used to measure the kinetics of the activation of [Ca^2+]i release in PC3 cells, in response to different Wnt ligands. The time constants (rise, dwell and fall times) were calculated by first fitting the Fluo4/FuraRed ratio to a single Gaussian function (Origin Lab Corp., MA); a lower (10%) and upper (90%) amplitude thresholding method was then used to calculate the time constants (s). Statistical significance was calculated using Mann Whitney U test.

[3] = test system: PC3 prostate cancer cell line; test: Live [Ca2+]i imaging (Fluo4/FuraRed ratio) after addition of Wnt ligand; conditions: PC3 cells; for intracellular calcium mobilization ([Ca2+]i release) in response to Wnt ligand: 100 ng/ml Wnt ligand peptide, ratio of Fluo4/Fura Red; for rise and fall time of [Ca2+]i release: Wnt peptide 100 ng/ml; for dependence of time constants (dwell time) on Wnt ligand concentration / co-operativity: three concentrations of each Wnt ligand, first-order fit
Experimental: The imaging protocol was developed in the inventor's laboratory and has been described in detail, elsewhere (Wang at al., (2010) PLoS ONE 5, e10456). Briefly, 100000-200000 PC3, MCF7, 253J or Cos 7 cells were plated on 35 mm FluoroDish (WPI) and grown for 48 h; calcium indicators Fluo-4 (Invitrogen) and FuraRed (Invitrogen) at 1 ng/ml were added to FluoroDish containing only 1 ml of culture medium and incubated for 15-20 min at 37° C. The culture medium was removed and washed (×2) and replaced with 1 ml PBS. Live cell calcium Imaging was performed on an Olympus FluoView FV 1000 confocal microscope (Olympus KeyMed) equipped with a 20× dry objective (numerical aperture=0.75). Calcium indicators were excited with an argon laser line (488 nm) and emissions recorded in the green channel (500-560 nm) for Fluo-4 and red channel (600-700 nm) for FuraRed after addition of vehicle control (PBS) or Wnt X (30-600 ng/ml). Images were acquired every 1.1 or 2.2 seconds for up to 600-800s; image and data acquisition was performed using FluoView 1000 software (Olympus, UK). Fluorescent intensity was measured and data exported as a tab delimited file for further analysis using a spreadsheet. All imaging experiments were performed in duplicate; intracellular calcium at 100 ng/ml was measured in at least 3-12 different passages (passage numbers 25 to 37) of cell line for each Wnt ligand. Wnt 11 was tested in at least 5 different passages at 3 different concentrations. To test if the Wnt activated calcium release was from [Ca^2+]i stores, in some cases PC3 cells, loaded with calcium dyes, were incubated with 1-5 μM of thapsigargin (Sigma, UK), resuspended in dimethyl sulfoxide (DMSO), for 20 min at 37° C., prior to addition of Wnt ligand and live calcium imaging (as described above).
The experiments were performed using 35 mm, glass bottom, FluoroDish containing 1 ml PBS, at 37° C., to which ligands were added at desired concentration. In a static, non-superfusing assay system there is a lag time before the start of a response, in this case an increase in the intensity of the Fluo4 signal due to the release of free calcium. To measure the diffusion constant under these conditions we used Pontamine Sky Blue (Sigma Aldridge), which fluoresces in the red spectrum with 488 nm excitation, using standard practice for adding ligands; the diffusion constant was measured to be 23.3±2.1 μm·s^−1 (means±S.E.M, n=8). The calcium wave, in response to Wnt ligands, travelled across the FluoroDish.
as §1

Molecule | Wnt ligand induced calcium release after preincubation with MPRC (FIG. 16) [2] | intracellular calcium mobilization ([Ca2+]i release) in response to Wnt ligand [3] | dependence of time constants (dwell time) on Wnt ligand concentration / co-operativity [3] | further results
C[C@@H]1O[C@@H](O[C@H]2C[C@@H](O)[C@]3(CO)[C@H]4[C@H](O)C[C@]5(C)[C@@H](C6=CC(=O)OC6)CC[C@]5(O)[C@@H]4CC[C@]3(O)C2)[C@H](O)[C@H](O)[C@H]1O [Ouabain, reference compound] | – | – | – | β-catenin translocation to the nucleus after pretreatment with Ouabain (FIG. 21) ([1]; Wnt5A treated): increases
CCCCc1oc2ccccc2c1C(=O)c1cc(I)c(OCCN(CC)CC)c(I)c1 [Amiodarone] | inhibited | – | – | –
[Cl][Cd][Cl] [CdCl2] | inhibited | – | – | –
COC(=O)C1=C(C)NC(C)=C(C(=O)OC(C)C)C1c1cccc2nonc12 (stereo not shown) [Isradipine] | inhibited | – | – | –
CC(C)NCC(O)COc1cccc2ccccc12 (stereo not shown) [Propanolol] | inhibited | – | – | –
B1 | – | induce intracellular calcium mobilization | negative co-operativity | rise and fall time of [Ca2+]i release [3]: slowest; Pearson coefficient of nuclear co-localization of β-catenin [1]: significant increase
B2 | – | induce intracellular calcium mobilization | no difference | –
B3 | – | did not mobilize [Ca^2+]i | – | –
B4 | – | induce intracellular calcium mobilization | negative co-operativity | rise and fall time of [Ca2+]i release [3]: shortest; Pearson coefficient of nuclear co-localization of β-catenin [1]: significant increase
